Assay results as given in PMC5973619.

Target: T1, Sun2 (human (endogenous in HeLa and RPE-1)), Q9UH99
T1 chain: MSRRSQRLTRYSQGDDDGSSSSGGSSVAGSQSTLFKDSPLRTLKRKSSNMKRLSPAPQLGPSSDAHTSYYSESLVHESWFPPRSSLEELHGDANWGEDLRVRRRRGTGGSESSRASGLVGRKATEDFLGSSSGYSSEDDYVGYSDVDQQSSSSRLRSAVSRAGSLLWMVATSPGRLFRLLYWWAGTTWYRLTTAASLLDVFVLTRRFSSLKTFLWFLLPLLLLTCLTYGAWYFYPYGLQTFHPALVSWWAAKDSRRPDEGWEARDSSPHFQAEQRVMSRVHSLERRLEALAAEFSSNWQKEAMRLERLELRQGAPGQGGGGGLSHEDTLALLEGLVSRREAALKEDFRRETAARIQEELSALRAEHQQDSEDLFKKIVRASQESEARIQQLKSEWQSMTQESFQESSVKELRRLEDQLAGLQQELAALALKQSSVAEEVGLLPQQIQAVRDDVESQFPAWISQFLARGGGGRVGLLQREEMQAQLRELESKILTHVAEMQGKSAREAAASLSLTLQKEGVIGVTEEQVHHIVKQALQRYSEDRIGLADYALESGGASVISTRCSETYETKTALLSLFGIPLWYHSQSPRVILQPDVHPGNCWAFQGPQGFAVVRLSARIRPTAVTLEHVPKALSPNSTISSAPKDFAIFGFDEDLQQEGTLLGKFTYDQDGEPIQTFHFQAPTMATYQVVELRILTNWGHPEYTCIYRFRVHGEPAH
Test: cross-linking; HeLa cells in PBS containing .5% formaldehyde for 10min room temperature before lysis; reducing SDS-PAGE and blot for Sun1 and Sun2
Conditions: remark: other sources report otherwise

B1: Sun2, Q9UH99 1-717 (natural protein)
chain: T1 chain
- stoichiometry N: 3
